T1: FcγRIIa R (human, UniProt P12318 34-217)
T1 construct: extracellular domain; Soluble extracellular domain with C-terminal His tag, expressed in FreeStyle293 cells; also called FcgRIIa R; FcγRIIa type R; not shown: His tag attached to the C terminus
T1 sequence (looked up): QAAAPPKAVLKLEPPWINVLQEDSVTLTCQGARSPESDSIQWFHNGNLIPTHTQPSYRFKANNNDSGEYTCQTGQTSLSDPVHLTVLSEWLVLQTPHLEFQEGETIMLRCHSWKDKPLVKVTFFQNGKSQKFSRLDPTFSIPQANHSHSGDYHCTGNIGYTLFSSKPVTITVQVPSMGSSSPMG


Target: T1, FcγRIIa R
Test: SPR (Biacore), antibody captured via antigen peptide, FcγRIIa R as analyte; homodimerized antibody
Experimental: Analysis of interaction between objective antibody and the FcγR was carried out using Biacore T100 (GE Healthcare). HBS-EP+ (GE Healthcare) was used as the running buffer, and the measurement temperature was set to 25° C. Chips produced by immobilizing the antigen peptide by the amine coupling method to a Series S Sencor Chip CM5 (GE Healthcare), or alternatively, chips produced by allowing preliminarily biotinylated antigen peptides to interact with and immobilize onto a Series S Sensor Chip SA (certified) (GE Healthcare) were used. Antibodies of interest were captured onto an antigen peptide-immobilized chip, and allowed to interact to each FcγR diluted with running buffer. To regenerate and repeatedly use the chip, the antibodies captured on the chip were washed off by reacting 10 mM glycine-HCl, pH 1.5.

| Binder | Ho/Con_2aR |
| --- | --- |
| GpH7-B3 variant L328_03V/GpL16-k0 (antibody, human IgG1, kappa, homodimerized; mutation in both H chains; also called Ho Ab) heavy: not shown light: DIVMTQSPLSLPVTPGEPASISCQASESLVHSNRNTYLHWYLQKPGQSPQLLIYKVSNRFSGVPDRFSGSGSGTDFTLKISRVEAEDVGVYYCSQNTHVPPTFGQGTKVEIERTVAAPSVFIFPPSDEQLKSGTASVVCLLNNFYPREAKVQWKVDNALQSGNSQESVTEQDSKDSTYSLSSTLTLSKADYEKHKVYACEVTHQGLSSPVTKSFNRGEC | 116 % of control (GpH7-B3/GpL16-k0 = 100) |
| GpH7-B3 variant P238_08L/GpL16-k0 (antibody, human IgG1, kappa, homodimerized; mutation in both H chains; also called Ho Ab) heavy: not shown light: DIVMTQSPLSLPVTPGEPASISCQASESLVHSNRNTYLHWYLQKPGQSPQLLIYKVSNRFSGVPDRFSGSGSGTDFTLKISRVEAEDVGVYYCSQNTHVPPTFGQGTKVEIERTVAAPSVFIFPPSDEQLKSGTASVVCLLNNFYPREAKVQWKVDNALQSGNSQESVTEQDSKDSTYSLSSTLTLSKADYEKHKVYACEVTHQGLSSPVTKSFNRGEC | 148 % of control (GpH7-B3/GpL16-k0 = 100) |
| GpH7-B3 variant T335_06M/GpL16-k0 (antibody, human IgG1, kappa, homodimerized; mutation in both H chains; also called Ho Ab) heavy: not shown light: DIVMTQSPLSLPVTPGEPASISCQASESLVHSNRNTYLHWYLQKPGQSPQLLIYKVSNRFSGVPDRFSGSGSGTDFTLKISRVEAEDVGVYYCSQNTHVPPTFGQGTKVEIERTVAAPSVFIFPPSDEQLKSGTASVVCLLNNFYPREAKVQWKVDNALQSGNSQESVTEQDSKDSTYSLSSTLTLSKADYEKHKVYACEVTHQGLSSPVTKSFNRGEC | 107 % of control (GpH7-B3/GpL16-k0 = 100) |
| GpH7-B3 variant S239_01G/GpL16-k0 (antibody, human IgG1, kappa, homodimerized; mutation in both H chains; also called Ho Ab) heavy: not shown light: DIVMTQSPLSLPVTPGEPASISCQASESLVHSNRNTYLHWYLQKPGQSPQLLIYKVSNRFSGVPDRFSGSGSGTDFTLKISRVEAEDVGVYYCSQNTHVPPTFGQGTKVEIERTVAAPSVFIFPPSDEQLKSGTASVVCLLNNFYPREAKVQWKVDNALQSGNSQESVTEQDSKDSTYSLSSTLTLSKADYEKHKVYACEVTHQGLSSPVTKSFNRGEC | 132 % of control (GpH7-B3/GpL16-k0 = 100) |
| GpH7-B3 variant L328_06M/GpL16-k0 (antibody, human IgG1, kappa, homodimerized; mutation in both H chains; also called Ho Ab) heavy: not shown light: DIVMTQSPLSLPVTPGEPASISCQASESLVHSNRNTYLHWYLQKPGQSPQLLIYKVSNRFSGVPDRFSGSGSGTDFTLKISRVEAEDVGVYYCSQNTHVPPTFGQGTKVEIERTVAAPSVFIFPPSDEQLKSGTASVVCLLNNFYPREAKVQWKVDNALQSGNSQESVTEQDSKDSTYSLSSTLTLSKADYEKHKVYACEVTHQGLSSPVTKSFNRGEC | 124 % of control (GpH7-B3/GpL16-k0 = 100) |
| GpH7-B3 variant T335_04F/GpL16-k0 (antibody, human IgG1, kappa, homodimerized; mutation in both H chains; also called Ho Ab) heavy: not shown light: DIVMTQSPLSLPVTPGEPASISCQASESLVHSNRNTYLHWYLQKPGQSPQLLIYKVSNRFSGVPDRFSGSGSGTDFTLKISRVEAEDVGVYYCSQNTHVPPTFGQGTKVEIERTVAAPSVFIFPPSDEQLKSGTASVVCLLNNFYPREAKVQWKVDNALQSGNSQESVTEQDSKDSTYSLSSTLTLSKADYEKHKVYACEVTHQGLSSPVTKSFNRGEC | 108 % of control (GpH7-B3/GpL16-k0 = 100) |
| GpH7-B3 variant S267_01G/GpL16-k0 (antibody, human IgG1, kappa, homodimerized; mutation in both H chains; also called Ho Ab) heavy: not shown light: DIVMTQSPLSLPVTPGEPASISCQASESLVHSNRNTYLHWYLQKPGQSPQLLIYKVSNRFSGVPDRFSGSGSGTDFTLKISRVEAEDVGVYYCSQNTHVPPTFGQGTKVEIERTVAAPSVFIFPPSDEQLKSGTASVVCLLNNFYPREAKVQWKVDNALQSGNSQESVTEQDSKDSTYSLSSTLTLSKADYEKHKVYACEVTHQGLSSPVTKSFNRGEC | 116 % of control (GpH7-B3/GpL16-k0 = 100) |
| GpH7-B3 variant S239_09D/GpL16-k0 (antibody, human IgG1, kappa, homodimerized; mutation in both H chains; also called Ho Ab; GpH7-B3-06-09D/GpL16-k0) heavy: not shown light: DIVMTQSPLSLPVTPGEPASISCQASESLVHSNRNTYLHWYLQKPGQSPQLLIYKVSNRFSGVPDRFSGSGSGTDFTLKISRVEAEDVGVYYCSQNTHVPPTFGQGTKVEIERTVAAPSVFIFPPSDEQLKSGTASVVCLLNNFYPREAKVQWKVDNALQSGNSQESVTEQDSKDSTYSLSSTLTLSKADYEKHKVYACEVTHQGLSSPVTKSFNRGEC | 142 % of control (GpH7-B3/GpL16-k0 = 100) |
| GpH7-B3 variant S267_02A/GpL16-k0 (antibody, human IgG1, kappa, homodimerized; mutation in both H chains; also called Ho Ab) heavy: not shown light: DIVMTQSPLSLPVTPGEPASISCQASESLVHSNRNTYLHWYLQKPGQSPQLLIYKVSNRFSGVPDRFSGSGSGTDFTLKISRVEAEDVGVYYCSQNTHVPPTFGQGTKVEIERTVAAPSVFIFPPSDEQLKSGTASVVCLLNNFYPREAKVQWKVDNALQSGNSQESVTEQDSKDSTYSLSSTLTLSKADYEKHKVYACEVTHQGLSSPVTKSFNRGEC | 160 % of control (GpH7-B3/GpL16-k0 = 100) |
| GpH7-B3 variant T335_08L/GpL16-k0 (antibody, human IgG1, kappa, homodimerized; mutation in both H chains; also called Ho Ab) heavy: not shown light: DIVMTQSPLSLPVTPGEPASISCQASESLVHSNRNTYLHWYLQKPGQSPQLLIYKVSNRFSGVPDRFSGSGSGTDFTLKISRVEAEDVGVYYCSQNTHVPPTFGQGTKVEIERTVAAPSVFIFPPSDEQLKSGTASVVCLLNNFYPREAKVQWKVDNALQSGNSQESVTEQDSKDSTYSLSSTLTLSKADYEKHKVYACEVTHQGLSSPVTKSFNRGEC | 108 % of control (GpH7-B3/GpL16-k0 = 100) |
| GpH7-B3 variant S337_14T/GpL16-k0 (antibody, human IgG1, kappa, homodimerized; mutation in both H chains; also called Ho Ab) heavy: not shown light: DIVMTQSPLSLPVTPGEPASISCQASESLVHSNRNTYLHWYLQKPGQSPQLLIYKVSNRFSGVPDRFSGSGSGTDFTLKISRVEAEDVGVYYCSQNTHVPPTFGQGTKVEIERTVAAPSVFIFPPSDEQLKSGTASVVCLLNNFYPREAKVQWKVDNALQSGNSQESVTEQDSKDSTYSLSSTLTLSKADYEKHKVYACEVTHQGLSSPVTKSFNRGEC | 110 % of control (GpH7-B3/GpL16-k0 = 100) |
| GpH7-B3 variant L328_07I/GpL16-k0 (antibody, human IgG1, kappa, homodimerized; mutation in both H chains; also called Ho Ab) heavy: not shown light: DIVMTQSPLSLPVTPGEPASISCQASESLVHSNRNTYLHWYLQKPGQSPQLLIYKVSNRFSGVPDRFSGSGSGTDFTLKISRVEAEDVGVYYCSQNTHVPPTFGQGTKVEIERTVAAPSVFIFPPSDEQLKSGTASVVCLLNNFYPREAKVQWKVDNALQSGNSQESVTEQDSKDSTYSLSSTLTLSKADYEKHKVYACEVTHQGLSSPVTKSFNRGEC | 140 % of control (GpH7-B3/GpL16-k0 = 100) |
| GpH7-B3 variant T335_09D/GpL16-k0 (antibody, human IgG1, kappa, homodimerized; mutation in both H chains; also called Ho Ab) heavy: not shown light: DIVMTQSPLSLPVTPGEPASISCQASESLVHSNRNTYLHWYLQKPGQSPQLLIYKVSNRFSGVPDRFSGSGSGTDFTLKISRVEAEDVGVYYCSQNTHVPPTFGQGTKVEIERTVAAPSVFIFPPSDEQLKSGTASVVCLLNNFYPREAKVQWKVDNALQSGNSQESVTEQDSKDSTYSLSSTLTLSKADYEKHKVYACEVTHQGLSSPVTKSFNRGEC | 113 % of control (GpH7-B3/GpL16-k0 = 100) |
| GpH7-B3 variant S267_07I/GpL16-k0 (antibody, human IgG1, kappa, homodimerized; mutation in both H chains; also called Ho Ab) heavy: not shown light: DIVMTQSPLSLPVTPGEPASISCQASESLVHSNRNTYLHWYLQKPGQSPQLLIYKVSNRFSGVPDRFSGSGSGTDFTLKISRVEAEDVGVYYCSQNTHVPPTFGQGTKVEIERTVAAPSVFIFPPSDEQLKSGTASVVCLLNNFYPREAKVQWKVDNALQSGNSQESVTEQDSKDSTYSLSSTLTLSKADYEKHKVYACEVTHQGLSSPVTKSFNRGEC | 113 % of control (GpH7-B3/GpL16-k0 = 100) |
| GpH7-B3 variant L328_04F/GpL16-k0 (antibody, human IgG1, kappa, homodimerized; mutation in both H chains; also called Ho Ab) heavy: not shown light: DIVMTQSPLSLPVTPGEPASISCQASESLVHSNRNTYLHWYLQKPGQSPQLLIYKVSNRFSGVPDRFSGSGSGTDFTLKISRVEAEDVGVYYCSQNTHVPPTFGQGTKVEIERTVAAPSVFIFPPSDEQLKSGTASVVCLLNNFYPREAKVQWKVDNALQSGNSQESVTEQDSKDSTYSLSSTLTLSKADYEKHKVYACEVTHQGLSSPVTKSFNRGEC | 145 % of control (GpH7-B3/GpL16-k0 = 100) |
| GpH7-B3 variant L328_15Y/GpL16-k0 (antibody, human IgG1, kappa, homodimerized; mutation in both H chains; also called Ho Ab) heavy: not shown light: DIVMTQSPLSLPVTPGEPASISCQASESLVHSNRNTYLHWYLQKPGQSPQLLIYKVSNRFSGVPDRFSGSGSGTDFTLKISRVEAEDVGVYYCSQNTHVPPTFGQGTKVEIERTVAAPSVFIFPPSDEQLKSGTASVVCLLNNFYPREAKVQWKVDNALQSGNSQESVTEQDSKDSTYSLSSTLTLSKADYEKHKVYACEVTHQGLSSPVTKSFNRGEC | 157 % of control (GpH7-B3/GpL16-k0 = 100) |

From US20180155451A1 (published 2018)
